According to patent US20250304718A1, “HER2 SINGLE DOMAIN ANTIBODY AND USES THEREOF” (Institut Curie, priority 2024, published 2025):

How the values were obtained:
[1] = target: T1, HER2 (Receptor tyrosine-protein kinase erbB-2) on the surface of SKBR3 cells (human, UniProt P04626 23-1255); assay: flow cytometry (FACS) on SKBR3 cells overexpressing HER2; MCF10A HER2-negative cells as control
T1 construct: Endogenous HER2 overexpressed on the SKBR3 breast tumor cell line; also called CD340
Method: (§1) From inventors humanized sdAb libraries, a phage display subtraction selection system was developed to identify sdAbs that selectively detect the surface of breast tumor cells. The SKBR3 target cell line was used because it overexpresses the HER2 protein on its surface, while the MCF10A cell line, derived from non-cancerous and HER2-negative mammary gland cells, was used to pre-adsorb the libraries. After 3 successive cycles of selection on these cell lines, sdAb clones were analyzed by flow cytometry (FACS) for their binding capacity on SKBR3 cells and MCF10A cells.

[2] = target: T2, Her2 recombinant ectodomain fused to a Rabbit Fc domain (human; rabbit, UniProt P04626 23-652); assay: ELISA on recombinant Her2 ectodomain-Rabbit Fc
T2 construct: also called Her2 ectodomain-Rabbit Fc; not shown: Rabbit Fc domain

MCF10A cells = assay: FACS binding of sdAb on MCF10A cells; details: MCF10A non-cancerous, HER2-negative; data not shown
Method: as §1
(§2) A human VH anti-HER2 was selected for further experiments.

[3] = test system: Jurkat-derived clone bearing a NFAT-YFP gene reporter; assay: Reporter cell system for CAR-T cell activity (FACS); type: cell-based; details: sdAb in second generation CAR (CD8 TM, 4-1BB, CD3z)
Excerpt: The anti-HER2 sdAb of the invention was also validated for use in CAR-T format. The model of CAR chosen is the one used to treat diffuse lymphomas (Linguanti F, Abenavoli E M, Berti V, Lopci E. Metabolic Imaging in B-Cell Lymphomas during CAR-T Cell Therapy. Cancers (Basel). 2022 Sep. 27; 14(19):4700. doi: 10.3390/cancers14194700. PMID: 36230629; PMCID: PMC9562671). This anti-lymphoma CAR-T therapy called “second generation” comprises the transmembrane domain of CD8, a costimulation domain from 4-1BB and the CD3z signaling domain. In the case of Kymriah® targeting B lymphocytes, the binding module is an anti-CD19 scFv. In the construction of the invention, the anti-CD19 scFv was replaced by the anti-Her2 sdAb of the invention.
The inventors developed a reporter cell system allowing to identify CAR-T cell activity. It is based on a Jurkat-derived clone bearing a NFAT-YFP gene reporter activated by TCR clustering (Blanchard N. et al, The Journal of Immunology, 2004).

SKBR3 cells = assay: FACS binding of sdAb on SKBR3 cells; details: SKBR3 overexpresses HER2 on its surface; data not shown
Method: as §1, §2

[4] = target: T3, Her2 recombinant ectodomain fused to a Rabbit Fc domain (Homo sapiens, UniProt P04626); assay: ELISA on Her2 recombinant ectodomain; type: binding; details: data not shown
T3 construct: validated by ELISA on Her2 recombinant ectodomain fused to a Rabbit Fc domain; Rabbit Fc domain
Excerpt: The anti-HER2 sdAb was afterward validated by ELISA on Her2 recombinant ectodomain fused to a Rabbit Fc domain (data not shown).

B1: humanized anti-HER2 single domain antibody (sdAb) of the invention (VHH)
VHH: EVQLVESGGGLVQPGGSLRLSCAASGAFYKAYNMGWVRQAPGKGLEWVSAISATQGKWVYYADSVKGRFTISRDNSKNTVYLQMNSLRAEDTAVYYCAKLPISKKALYRGQGTLVTVSS
notes: Synthetic humanized/human VH single domain antibody (not a camelid VHH), selected by phage display on SKBR3 cells; also called VH anti-Her2; human VH anti-HER2
[1]
  binding result: binds
[2]
  binding result: binds

B2: anti-HER2 sdAb: fully humanized anti-HER2 VH single domain antibody, SEQ ID NO:2, CDRs SEQ ID NO:7-9 (protein)
VHH: MAEVQLVESGGGLVQPGGSLRLSCAASGAFYKAYNMGWVRQAPGKGLEWVSAISATQGKWVYYADSVKGRFTISRDNSKNTVYLQMNSLRAEDTAVYYCAKLPISKKALYRGQGTLVTVSS
MCF10A cells
  recognition on MCF10A cells in FACS: not on MCF10A cells
[3]
  activation detected by FACS: specific activation
SKBR3 cells
  recognition on SKBR3 cells in FACS: specific recognition
[4]
  validation by ELISA: validated
